The text below walks through data of patent US5851528.

Experiment [1] addresses C3/C5 convertases.
Experiment [2] deals with C5 convertase (formed in human serum) (human).
Experiment [3] concerns the target C3/C5 convertases. This is another data set of the same source.

Consider “CAB-2 (complement activation blocker-2), recombinant chimeric protein encoded by the MCP-DAF expression vector”, for which the IC50, inhibition of alternative pathway complement-mediated lysis of unsensitized guinea pig RBC by human serum in experiment [1] turned out to be 100 nM. Also, in experiment [2], the IC50, inhibition of C5a production in human serum (competition radioimmunoassay for C5a desArg) was 300 nM. In experiment [3], the IC50, inhibition of classical pathway complement-mediated lysis of IgM-sensitized sheep RBC by human serum is 30 nM.

In the case of “mixture of sMCP + sDAF added together on an equal molar basis (pool or library)”, the IC50, inhibition of classical pathway complement-mediated lysis of IgM-sensitized sheep RBC by human serum in experiment [3] is 200 nM.

Regarding “soluble DAF (sDAF), soluble decay accelerating factor (from UniProt P08174)”, the IC50, inhibition of classical pathway complement-mediated lysis of IgM-sensitized sheep RBC by human serum in experiment [3] came out at 100 nM.

Turning to “soluble MCP (sMCP), soluble membrane cofactor protein recombinant protein (from UniProt P15529-3)”, in experiment [1], the IC50, inhibition of alternative pathway complement-mediated lysis of unsensitized guinea pig RBC by human serum stood at 350 nM. The IC50, inhibition of C5a production in human serum (competition radioimmunoassay for C5a desArg) in experiment [2] came to 5000 nM. The IC50, inhibition of classical pathway complement-mediated lysis of IgM-sensitized sheep RBC by human serum in experiment [3] came out at 7000 nM.
